According to patent US20250235548A1, “ANTIBODY-DRUG CONJUGATES TARGETING NAPI2B AND METHODS OF USE” (Zymeworks BC Inc., priority 2022, published 2025):
Blank lines part the entries; values can stand above or below the molecule they belong to.

Key:
[1] = Thermal stability by differential scanning calorimetry (Example 8); type: physicochemical; settings: DSC, 0.4 mg/mL in PBS, 20° C. to 100° C. at 60° C./hr
Description: The thermal stability of the humanized antibody variants was assessed by differential scanning calorimetry (DSC) as described below.
400 μL of purified samples primarily at concentrations of 0.4 mg/mL in PBS were used for DSC analysis with a VP-Capillary DSC (Malvern Panalytical Inc., Westborough, MA). At the start of each DSC run, 5 buffer blank injections were performed to stabilize the baseline, and a buffer injection was placed before each sample injection for referencing. Each sample was scanned from 20° C. to 100° C. at a 60° C./hr rate, with low feedback, 8 sec filter, 3 min pre-scan thermostat, and 70 psi nitrogen pressure. The resulting thermograms were referenced and analyzed using Origin 7 software (OriginLab Corporation, Northampton, MA) to determine melting temperature (Tm) as an indicator of thermal stability.

[2] = molecular target: T1, NaPi2b expressed on IGROV-1 cells (Homo sapiens, UniProt O95436); assay: Cellular binding of bivalent antibodies by flow cytometry (Example 16); settings: NB = no cellular binding; for Bmax, IGROV-1: AF647 GeoMean, 24 hours at 4° C.
T1 construct: endogenous NaPi2b-expressing cancer cell lines IGROV-1 (ovarian carcinoma); endogenous in cells; host or cells: IGROV-1
T1 sequence (O95436 1-690): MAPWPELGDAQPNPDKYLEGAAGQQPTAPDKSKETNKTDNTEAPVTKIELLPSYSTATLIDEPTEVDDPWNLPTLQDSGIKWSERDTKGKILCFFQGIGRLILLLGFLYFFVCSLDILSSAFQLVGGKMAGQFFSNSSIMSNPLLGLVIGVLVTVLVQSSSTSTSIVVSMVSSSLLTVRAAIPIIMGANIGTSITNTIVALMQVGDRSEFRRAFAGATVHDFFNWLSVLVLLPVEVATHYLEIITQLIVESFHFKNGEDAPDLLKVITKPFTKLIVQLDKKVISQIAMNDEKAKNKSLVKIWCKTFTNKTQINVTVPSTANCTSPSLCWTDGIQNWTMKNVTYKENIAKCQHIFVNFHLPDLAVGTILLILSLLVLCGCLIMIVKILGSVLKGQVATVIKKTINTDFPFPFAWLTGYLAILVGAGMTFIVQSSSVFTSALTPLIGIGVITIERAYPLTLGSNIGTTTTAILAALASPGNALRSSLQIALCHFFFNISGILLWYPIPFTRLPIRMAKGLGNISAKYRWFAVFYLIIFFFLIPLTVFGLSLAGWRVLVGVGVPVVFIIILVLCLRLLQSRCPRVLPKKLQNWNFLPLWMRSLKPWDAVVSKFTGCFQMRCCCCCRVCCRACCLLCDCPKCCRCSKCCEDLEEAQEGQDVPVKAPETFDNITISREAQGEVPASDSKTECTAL
Description: IGROV-1 cells express endogenous NaPi2b at a high level.
Briefly, cells were seeded at 50,000 cells/well in conical-bottom 96-well plates and treated with test antibody for 24 hours at 4° C. to prevent internalization. […] Following incubation and washing, fluorescence was detected by flow cytometry on a BD LSRFortessa™ Cell Analyzer (BD Biosciences, Franklin Lake, NJ) with 1,000 minimum events collected per well.

B1: v29453: "Representative humanized antibody variants ... of the mouse antibody" that specifically binds hNaPi2b (antibody, V domains shown)
VH: QVQLVQSGAEVKKPGASVKMSCKASGFTFTSYNVHWVRQAPGQGLEWIAAISPGNGDLSYAQKFQGRATLTVDRSTSTAYMELSSLRSEDTAVYYCARGRTGMGAVDYWGQGTLVTVSS
VL: DVQMTQSPSSLSASVGDRVTITCRASQDVYSYLNWYQQKPGKAVKLLIYYTSRLQSGVPSRFSGSGSGTDYTLTISSLQPEDFATYYCQQYNIFPWTFGQGTKLEIK
modifications: v29449, v29453, v29457 VH (H4); v29453, v29454, v29455, v29456 VL (L2)
Fab Tm (° C.) [1]: 78.9 °C
Bmax, IGROV-1 [2]: 44,480
Curve Hill Slope (h), IGROV-1 [2]: 1.2

B2: v29454: "Representative humanized antibody variants ... of the mouse antibody" that specifically binds hNaPi2b (antibody, V domains shown)
VH: QVQLVQSGAEVKKPGASVKMSCKASGFTFTSYNVHWVRQAPGQGLEWIAAISPGNGDLSYAQKFQGRATLTVDTSTSTAYMELSSLRSEDTAVYYCARGRTGMGAVDYWGQGTLVTVSS
VL: DVQMTQSPSSLSASVGDRVTITCRASQDVYSYLNWYQQKPGKAVKLLIYYTSRLQSGVPSRFSGSGSGTDYTLTISSLQPEDFATYYCQQYNIFPWTFGQGTKLEIK
modifications: v29450, v29454, v29458 VH (H3); v29453, v29454, v29455, v29456 VL (L2)
Fab Tm (° C.) [1]: 79.7 °C
Bmax, IGROV-1 [2]: 42,278
Curve Hill Slope (h), IGROV-1 [2]: 1.0

B3: v29455: "Representative humanized antibody variants ... of the mouse antibody" that specifically binds hNaPi2b (antibody, V domains shown)
VH: QVQLVQSGAEVKKPGASVKVSCKASGFTFTSYNVHWVRQAPGQGLEWIAAISPGNGDLSYAQKFQGRVTMTVDTSTSTVYMELSSLRSEDTAVYYCARGRTGMGAVDYWGQGTLVTVSS
VL: DVQMTQSPSSLSASVGDRVTITCRASQDVYSYLNWYQQKPGKAVKLLIYYTSRLQSGVPSRFSGSGSGTDYTLTISSLQPEDFATYYCQQYNIFPWTFGQGTKLEIK
modifications: v29451, v29455, 29459 VH (H2); v29453, v29454, v29455, v29456 VL (L2)
Fab Tm (° C.) [1]: 81.5 °C
Bmax, IGROV-1 [2]: 41,917
Curve Hill Slope (h), IGROV-1 [2]: 1.1

B7: v29449: "Representative humanized antibody variants ... of the mouse antibody" that specifically binds hNaPi2b (antibody, V domains shown)
VH: QVQLVQSGAEVKKPGASVKMSCKASGFTFTSYNVHWVRQAPGQGLEWIAAISPGNGDLSYAQKFQGRATLTVDRSTSTAYMELSSLRSEDTAVYYCARGRTGMGAVDYWGQGTLVTVSS
VL: DVQMTQSPSSLSASVGDRVTITCRASQDVYSYLNWYQQKPGKAVKLLIYYTSRLQSGVPSRFSGSGSGTDYTLTISSLQPEDIATYYCQQYNIFPWTFGQGTKLEIK
modifications: v29449, v29453, v29457 VH (H4); v29449, v29450, v29451, v29452 VL (L3)
Fab Tm (° C.) [1]: 80.0 °C
Bmax, IGROV-1 [2]: 44,460
Curve Hill Slope (h), IGROV-1 [2]: 1.3

B8: v29450: "Representative humanized antibody variants ... of the mouse antibody" that specifically binds hNaPi2b (antibody, V domains shown)
VH: QVQLVQSGAEVKKPGASVKMSCKASGFTFTSYNVHWVRQAPGQGLEWIAAISPGNGDLSYAQKFQGRATLTVDTSTSTAYMELSSLRSEDTAVYYCARGRTGMGAVDYWGQGTLVTVSS
VL: DVQMTQSPSSLSASVGDRVTITCRASQDVYSYLNWYQQKPGKAVKLLIYYTSRLQSGVPSRFSGSGSGTDYTLTISSLQPEDIATYYCQQYNIFPWTFGQGTKLEIK
modifications: v29450, v29454, v29458 VH (H3); v29449, v29450, v29451, v29452 VL (L3)
Fab Tm (° C.) [1]: 81.0 °C
Bmax, IGROV-1 [2]: 43,809
Curve Hill Slope (h), IGROV-1 [2]: 1.2

B9: v29451: "Representative humanized antibody variants ... of the mouse antibody" that specifically binds hNaPi2b (antibody, V domains shown)
VH: QVQLVQSGAEVKKPGASVKVSCKASGFTFTSYNVHWVRQAPGQGLEWIAAISPGNGDLSYAQKFQGRVTMTVDTSTSTVYMELSSLRSEDTAVYYCARGRTGMGAVDYWGQGTLVTVSS
VL: DVQMTQSPSSLSASVGDRVTITCRASQDVYSYLNWYQQKPGKAVKLLIYYTSRLQSGVPSRFSGSGSGTDYTLTISSLQPEDIATYYCQQYNIFPWTFGQGTKLEIK
modifications: v29451, v29455, 29459 VH (H2); v29449, v29450, v29451, v29452 VL (L3)
Fab Tm (° C.) [1]: 83.0 °C
Bmax, IGROV-1 [2]: 46,170
Curve Hill Slope (h), IGROV-1 [2]: 1.1

The next lines start with results.

Bmax, IGROV-1 [2]: 44,539
Curve Hill Slope (h), IGROV-1 [2]: 1.0
B4: v29457: "Representative humanized antibody variants ... of the mouse antibody" that specifically binds hNaPi2b (antibody, V domains shown)
VH: QVQLVQSGAEVKKPGASVKMSCKASGFTFTSYNVHWVRQAPGQGLEWIAAISPGNGDLSYAQKFQGRATLTVDRSTSTAYMELSSLRSEDTAVYYCARGRTGMGAVDYWGQGTLVTVSS
VL: DIQMTQSPSSLSASVGDRVTITCRASQDVYSYLNWYQQKPGKAPKLLIYYTSRLQSGVPSRFSGSGSGTDFTLTISSLQPEDFATYYCQQYNIFPWTFGQGTKLEIK
modifications: v29449, v29453, v29457 VH (H4); v29457, v29458, v29459, v29460 VL (L1)
Fab Tm (° C.) [1]: 80.5 °C

Bmax, IGROV-1 [2]: 40,793
Curve Hill Slope (h), IGROV-1 [2]: 1.1
B5: v29458: "Representative humanized antibody variants ... of the mouse antibody" that specifically binds hNaPi2b (antibody, V domains shown)
VH: QVQLVQSGAEVKKPGASVKMSCKASGFTFTSYNVHWVRQAPGQGLEWIAAISPGNGDLSYAQKFQGRATLTVDTSTSTAYMELSSLRSEDTAVYYCARGRTGMGAVDYWGQGTLVTVSS
VL: DIQMTQSPSSLSASVGDRVTITCRASQDVYSYLNWYQQKPGKAPKLLIYYTSRLQSGVPSRFSGSGSGTDFTLTISSLQPEDFATYYCQQYNIFPWTFGQGTKLEIK
modifications: v29450, v29454, v29458 VH (H3); v29457, v29458, v29459, v29460 VL (L1)
Fab Tm (° C.) [1]: 81.6 °C

Bmax, IGROV-1 [2]: 40,071
Curve Hill Slope (h), IGROV-1 [2]: 1.2
B6: v29460: "Representative humanized antibody variants ... of the mouse antibody" that specifically binds hNaPi2b (antibody, V domains shown)
VH: QVQLVQSGAEVKKPGASVKVSCKASGFTFTSYNVHWVRQAPGQGLEWMGAISPGNGDLSYAQKFQGRVTMTRDTSTSTVYMELSSLRSEDTAVYYCARGRTGMGAVDYWGQGTLVTVSS
VL: DIQMTQSPSSLSASVGDRVTITCRASQDVYSYLNWYQQKPGKAPKLLIYYTSRLQSGVPSRFSGSGSGTDFTLTISSLQPEDFATYYCQQYNIFPWTFGQGTKLEIK
modifications: v29452, v29456, v29460 VH (H1); v29457, v29458, v29459, v29460 VL (L1)
Fab Tm (° C.) [1]: 80.3 °C
